Laboratory results from the supplement of paper PMC10065799, “High-throughput profiling of sequence recognition by tyrosine kinases and SH2 domains using bacterial peptide display” (eLife, 2023).

tested on: AncSZ; experiment: phosphorylation enrichment, bacterial display (enrichment ratio); higher = better substrate or ligand; peptides without Tyr show the background
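Also: 11-residue human phosphosite peptides and single-mutation variants displayed on the E. coli surface, counted by deep sequencing, each peptide's frequency after selection divided by its frequency in the unselected input library; frequency after pTyr selection over input frequency; kinase dosed for 20-30% of maximal phosphorylation in three min.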

Sequence | phosphorylation enrichment
AGREEYSAMRD [KRAS_Y64_Q61R] | 0.787
TDGNGYISFNE [LCP1_Y28] | 0.923
ETDSEYVKLSK [C7orf57_Y70_A74S] | 1.01
RASSSYRETPS [SORBS1_Y79] | 0.681
EKKDVYKTGEQ [CFH_Y1008_A1010T] | 0.7
QMQAAYQKAVA [HBD_Y131_V134A] | 0.576
RLNWIYFKDQT [RS1_Y165_YF] | 2.98
RTCSSYTIEKI [PARP15_Y520_A521T] | 0.937
KNITEYCRDLI [RECQL_Y492] | 0.877
MVIPNYSSRTE [UROC1_Y185] | 0.535
HNVPICEGFAL [ACTC1_Y168_Y168C_YF] | 1.1
GGGFGYQKTKK [DDX18_Y643] | 0.328
LNEQHYGGLTG [PGAM4_Y92_R90Q] | 0.752
KGFRGYSFDDI [TMEM230_Y110_YF] | 0.824
VDTAMYATMQR [TPO_Y55] | 0.697
AAARPYHIQKW [ACSBG1_Y677] | 0.601
VSSPKYGSNDE [TMCC2_Y473_D476N] | 0.867

Sequence | phosphorylation enrichment
KLKRSYCSPDI [USP8_Y717_S718C] | 0.538
CPSLPYSPVSS [CAMKK2_Y128] | 0.813
FQLPFYNTVPS [BMPR1A_Y458_M460T_YF] | 0.748
YPPTHYIRRMP [SLC4A11_Y820_V824M] | 0.717
LDYNEYFRYLN [HPRT1_Y198_D201Y] | 1.79
KDQGGYAMHQD [MAPT_Y29_T30A] | 0.677
CPASVYTKRCS [CPT2_Y508_R503C] | 0.598
ARMTNYGLPRY [TSPAN12_Y138] | 0.576
RFVFFYSFLLK [PTEN_Y178_YF] | 1.44
LLKKMYLMLDN [STAT1_Y203] | 0.883
GIVEDYRPPFF [ACVRL1_Y421_YF] | 0.825
KIIRRYVSSEG [ANK2_Y3907] | 0.509
KSRQIYDAFIM [GRK3_Y109_R104K_YF] | 0.764
RDIHDYIKHLG [UNC13C_Y308] | 0.9
HDRNTYEKYLG [TF_Y666] | 2.4
EQKKYYNAMKN [SCN5A_Y1495_K1500N] | 0.507

biological target: EPHB1 (UniProt P54762); experiment: as above
Sequence (P54762 whole entry, looked up): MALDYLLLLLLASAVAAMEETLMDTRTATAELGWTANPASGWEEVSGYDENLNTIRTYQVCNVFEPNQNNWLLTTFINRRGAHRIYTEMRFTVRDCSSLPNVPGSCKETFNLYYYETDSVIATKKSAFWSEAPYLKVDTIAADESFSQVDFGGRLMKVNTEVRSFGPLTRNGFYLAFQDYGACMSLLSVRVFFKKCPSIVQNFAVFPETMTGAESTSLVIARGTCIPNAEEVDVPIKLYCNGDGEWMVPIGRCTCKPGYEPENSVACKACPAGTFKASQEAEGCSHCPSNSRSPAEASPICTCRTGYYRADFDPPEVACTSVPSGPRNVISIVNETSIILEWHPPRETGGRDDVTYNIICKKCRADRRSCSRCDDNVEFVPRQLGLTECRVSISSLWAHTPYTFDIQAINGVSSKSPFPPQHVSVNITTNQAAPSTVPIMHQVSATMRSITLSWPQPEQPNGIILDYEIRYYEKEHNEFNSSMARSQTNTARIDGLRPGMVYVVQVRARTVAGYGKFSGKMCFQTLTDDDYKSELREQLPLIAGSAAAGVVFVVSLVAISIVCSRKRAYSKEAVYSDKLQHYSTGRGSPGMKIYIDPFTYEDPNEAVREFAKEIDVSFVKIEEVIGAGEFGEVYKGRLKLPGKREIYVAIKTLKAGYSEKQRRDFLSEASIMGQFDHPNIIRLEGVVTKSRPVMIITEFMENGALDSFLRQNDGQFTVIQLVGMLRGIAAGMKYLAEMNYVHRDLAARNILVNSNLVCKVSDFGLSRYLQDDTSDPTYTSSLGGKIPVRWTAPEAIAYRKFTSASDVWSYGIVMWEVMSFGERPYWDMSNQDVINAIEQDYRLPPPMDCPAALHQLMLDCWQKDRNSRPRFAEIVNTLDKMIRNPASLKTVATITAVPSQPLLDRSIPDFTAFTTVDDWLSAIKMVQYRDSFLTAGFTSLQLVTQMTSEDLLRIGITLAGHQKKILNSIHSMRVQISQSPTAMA

Sequence | phosphorylation enrichment
AGREEYSAMRD [KRAS_Y64_Q61R] | 0.506
TDGNGYISFNE [LCP1_Y28] | 0.476
ETDSEYVKLSK [C7orf57_Y70_A74S] | 0.524
RASSSYRETPS [SORBS1_Y79] | 0.361
EKKDVYKTGEQ [CFH_Y1008_A1010T] | 0.394
QMQAAYQKAVA [HBD_Y131_V134A] | 0.583
RLNWIYFKDQT [RS1_Y165_YF] | 1.08
RTCSSYTIEKI [PARP15_Y520_A521T] | 0.608
KNITEYCRDLI [RECQL_Y492] | 0.544
MVIPNYSSRTE [UROC1_Y185] | 0.477
HNVPICEGFAL [ACTC1_Y168_Y168C_YF] | 0.729
GGGFGYQKTKK [DDX18_Y643] | 0.252
LNEQHYGGLTG [PGAM4_Y92_R90Q] | 0.949
KGFRGYSFDDI [TMEM230_Y110_YF] | 0.495
VDTAMYATMQR [TPO_Y55] | 0.568
AAARPYHIQKW [ACSBG1_Y677] | 0.468
VSSPKYGSNDE [TMCC2_Y473_D476N] | 0.452

Sequence | phosphorylation enrichment
KLKRSYCSPDI [USP8_Y717_S718C] | 0.36
CPSLPYSPVSS [CAMKK2_Y128] | 0.491
FQLPFYNTVPS [BMPR1A_Y458_M460T_YF] | 0.526
YPPTHYIRRMP [SLC4A11_Y820_V824M] | 0.455
LDYNEYFRYLN [HPRT1_Y198_D201Y] | 0.858
KDQGGYAMHQD [MAPT_Y29_T30A] | 0.406
CPASVYTKRCS [CPT2_Y508_R503C] | 0.349
ARMTNYGLPRY [TSPAN12_Y138] | 0.463
RFVFFYSFLLK [PTEN_Y178_YF] | 0.748
LLKKMYLMLDN [STAT1_Y203] | 0.571
GIVEDYRPPFF [ACVRL1_Y421_YF] | 0.497
KIIRRYVSSEG [ANK2_Y3907] | 0.321
KSRQIYDAFIM [GRK3_Y109_R104K_YF] | 4.7
RDIHDYIKHLG [UNC13C_Y308] | 0.597
HDRNTYEKYLG [TF_Y666] | 0.781
EQKKYYNAMKN [SCN5A_Y1495_K1500N] | 0.388

biological target: EPHB2 (UniProt P29323); experiment: as above
Sequence (P29323 whole entry, looked up): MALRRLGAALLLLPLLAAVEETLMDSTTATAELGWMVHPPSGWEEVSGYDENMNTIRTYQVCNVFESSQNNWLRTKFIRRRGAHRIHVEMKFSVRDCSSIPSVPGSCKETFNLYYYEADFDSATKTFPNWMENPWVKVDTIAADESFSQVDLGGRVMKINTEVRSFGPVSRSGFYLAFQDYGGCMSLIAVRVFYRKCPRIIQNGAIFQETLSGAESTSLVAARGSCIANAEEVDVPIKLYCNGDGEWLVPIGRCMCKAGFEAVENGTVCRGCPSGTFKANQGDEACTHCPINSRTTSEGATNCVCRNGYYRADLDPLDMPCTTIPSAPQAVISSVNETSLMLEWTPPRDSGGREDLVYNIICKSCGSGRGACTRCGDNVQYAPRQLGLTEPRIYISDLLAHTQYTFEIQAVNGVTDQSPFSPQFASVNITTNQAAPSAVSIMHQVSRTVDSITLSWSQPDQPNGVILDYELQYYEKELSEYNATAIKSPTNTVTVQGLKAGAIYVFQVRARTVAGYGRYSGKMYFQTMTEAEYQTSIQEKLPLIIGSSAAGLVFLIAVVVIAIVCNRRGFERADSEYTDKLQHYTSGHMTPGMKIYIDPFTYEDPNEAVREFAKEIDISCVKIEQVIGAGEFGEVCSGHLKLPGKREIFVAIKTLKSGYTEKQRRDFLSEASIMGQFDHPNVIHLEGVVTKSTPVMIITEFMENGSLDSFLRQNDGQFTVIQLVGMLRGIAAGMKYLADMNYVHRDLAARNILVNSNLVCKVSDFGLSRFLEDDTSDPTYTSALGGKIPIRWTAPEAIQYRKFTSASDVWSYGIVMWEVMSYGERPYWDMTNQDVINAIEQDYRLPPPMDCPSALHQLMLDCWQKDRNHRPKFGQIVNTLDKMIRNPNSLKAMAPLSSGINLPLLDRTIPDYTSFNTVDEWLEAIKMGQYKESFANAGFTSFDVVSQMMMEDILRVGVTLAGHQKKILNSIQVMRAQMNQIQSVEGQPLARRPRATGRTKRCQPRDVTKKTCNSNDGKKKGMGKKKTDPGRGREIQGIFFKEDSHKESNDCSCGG

Sequence | phosphorylation enrichment
AGREEYSAMRD [KRAS_Y64_Q61R] | 0.546
TDGNGYISFNE [LCP1_Y28] | 0.485
ETDSEYVKLSK [C7orf57_Y70_A74S] | 0.63
RASSSYRETPS [SORBS1_Y79] | 0.337
EKKDVYKTGEQ [CFH_Y1008_A1010T] | 0.411
QMQAAYQKAVA [HBD_Y131_V134A] | 0.292
RLNWIYFKDQT [RS1_Y165_YF] | 0.918
RTCSSYTIEKI [PARP15_Y520_A521T] | 0.474
KNITEYCRDLI [RECQL_Y492] | 0.606
MVIPNYSSRTE [UROC1_Y185] | 0.462
HNVPICEGFAL [ACTC1_Y168_Y168C_YF] | 0.704
GGGFGYQKTKK [DDX18_Y643] | 0.318
LNEQHYGGLTG [PGAM4_Y92_R90Q] | 0.574
KGFRGYSFDDI [TMEM230_Y110_YF] | 0.541
VDTAMYATMQR [TPO_Y55] | 0.672
AAARPYHIQKW [ACSBG1_Y677] | 0.465
VSSPKYGSNDE [TMCC2_Y473_D476N] | 0.536

Sequence | phosphorylation enrichment
KLKRSYCSPDI [USP8_Y717_S718C] | 0.37
CPSLPYSPVSS [CAMKK2_Y128] | 0.607
FQLPFYNTVPS [BMPR1A_Y458_M460T_YF] | 0.45
YPPTHYIRRMP [SLC4A11_Y820_V824M] | 0.412
LDYNEYFRYLN [HPRT1_Y198_D201Y] | 1.39
KDQGGYAMHQD [MAPT_Y29_T30A] | 0.476
CPASVYTKRCS [CPT2_Y508_R503C] | 0.403
ARMTNYGLPRY [TSPAN12_Y138] | 0.588
RFVFFYSFLLK [PTEN_Y178_YF] | 0.502
LLKKMYLMLDN [STAT1_Y203] | 0.381
GIVEDYRPPFF [ACVRL1_Y421_YF] | 0.498
KIIRRYVSSEG [ANK2_Y3907] | 0.358
KSRQIYDAFIM [GRK3_Y109_R104K_YF] | 6.65
RDIHDYIKHLG [UNC13C_Y308] | 0.985
HDRNTYEKYLG [TF_Y666] | 0.759
EQKKYYNAMKN [SCN5A_Y1495_K1500N] | 0.335

biological target: FGFR1 (UniProt P11362); experiment: as above
Sequence (P11362 whole entry, looked up): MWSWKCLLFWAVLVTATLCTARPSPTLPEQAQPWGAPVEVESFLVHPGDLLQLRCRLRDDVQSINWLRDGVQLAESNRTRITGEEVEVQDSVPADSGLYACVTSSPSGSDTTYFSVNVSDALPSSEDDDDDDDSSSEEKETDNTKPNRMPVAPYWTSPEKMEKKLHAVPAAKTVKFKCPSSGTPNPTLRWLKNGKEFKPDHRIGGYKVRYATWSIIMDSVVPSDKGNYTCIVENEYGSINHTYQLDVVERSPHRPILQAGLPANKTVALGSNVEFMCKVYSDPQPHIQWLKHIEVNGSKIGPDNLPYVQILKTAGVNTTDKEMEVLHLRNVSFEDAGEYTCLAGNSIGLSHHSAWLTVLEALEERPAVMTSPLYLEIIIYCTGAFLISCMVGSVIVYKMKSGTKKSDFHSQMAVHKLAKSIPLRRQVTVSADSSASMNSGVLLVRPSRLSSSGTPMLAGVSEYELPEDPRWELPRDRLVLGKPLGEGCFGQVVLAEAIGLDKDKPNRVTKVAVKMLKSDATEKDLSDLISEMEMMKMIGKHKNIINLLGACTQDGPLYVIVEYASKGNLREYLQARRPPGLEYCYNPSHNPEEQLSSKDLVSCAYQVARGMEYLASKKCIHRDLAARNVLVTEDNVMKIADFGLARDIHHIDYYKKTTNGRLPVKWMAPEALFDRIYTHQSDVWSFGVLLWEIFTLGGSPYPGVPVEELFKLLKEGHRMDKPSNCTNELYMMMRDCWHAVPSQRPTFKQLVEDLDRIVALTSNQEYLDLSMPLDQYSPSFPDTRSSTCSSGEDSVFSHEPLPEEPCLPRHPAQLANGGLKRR

Sequence | phosphorylation enrichment
AGREEYSAMRD [KRAS_Y64_Q61R] | 0.472
TDGNGYISFNE [LCP1_Y28] | 0.546
ETDSEYVKLSK [C7orf57_Y70_A74S] | 0.516
RASSSYRETPS [SORBS1_Y79] | 0.611
EKKDVYKTGEQ [CFH_Y1008_A1010T] | 0.478
QMQAAYQKAVA [HBD_Y131_V134A] | 0.652
RLNWIYFKDQT [RS1_Y165_YF] | 1.17
RTCSSYTIEKI [PARP15_Y520_A521T] | 0.475
KNITEYCRDLI [RECQL_Y492] | 0.476
MVIPNYSSRTE [UROC1_Y185] | 0.406
HNVPICEGFAL [ACTC1_Y168_Y168C_YF] | 0.849
GGGFGYQKTKK [DDX18_Y643] | 0.371
LNEQHYGGLTG [PGAM4_Y92_R90Q] | 0.659
KGFRGYSFDDI [TMEM230_Y110_YF] | 0.41
VDTAMYATMQR [TPO_Y55] | 0.518
AAARPYHIQKW [ACSBG1_Y677] | 0.462
VSSPKYGSNDE [TMCC2_Y473_D476N] | 0.406

Sequence | phosphorylation enrichment
KLKRSYCSPDI [USP8_Y717_S718C] | 0.415
CPSLPYSPVSS [CAMKK2_Y128] | 0.588
FQLPFYNTVPS [BMPR1A_Y458_M460T_YF] | 0.414
YPPTHYIRRMP [SLC4A11_Y820_V824M] | 0.451
LDYNEYFRYLN [HPRT1_Y198_D201Y] | 3.33
KDQGGYAMHQD [MAPT_Y29_T30A] | 0.329
CPASVYTKRCS [CPT2_Y508_R503C] | 0.447
ARMTNYGLPRY [TSPAN12_Y138] | 0.495
RFVFFYSFLLK [PTEN_Y178_YF] | 0.731
LLKKMYLMLDN [STAT1_Y203] | 0.395
GIVEDYRPPFF [ACVRL1_Y421_YF] | 0.468
KIIRRYVSSEG [ANK2_Y3907] | 0.384
KSRQIYDAFIM [GRK3_Y109_R104K_YF] | 0.576
RDIHDYIKHLG [UNC13C_Y308] | 0.449
HDRNTYEKYLG [TF_Y666] | 0.676
EQKKYYNAMKN [SCN5A_Y1495_K1500N] | 0.336
